# Laboratory results from patent US20250332197A1 (SUNSHINE LAKE PHARMA, published 2025).
# Numbering of substitutions follows the chain as printed.
# T1: claudin-18.2 antigen (manufacturer: GenScript, batch number: R50092011) (UniProt P56856-2 1-261, limits assumed)
# T1 construct: Bought antigen
# T1 sequence (looked up): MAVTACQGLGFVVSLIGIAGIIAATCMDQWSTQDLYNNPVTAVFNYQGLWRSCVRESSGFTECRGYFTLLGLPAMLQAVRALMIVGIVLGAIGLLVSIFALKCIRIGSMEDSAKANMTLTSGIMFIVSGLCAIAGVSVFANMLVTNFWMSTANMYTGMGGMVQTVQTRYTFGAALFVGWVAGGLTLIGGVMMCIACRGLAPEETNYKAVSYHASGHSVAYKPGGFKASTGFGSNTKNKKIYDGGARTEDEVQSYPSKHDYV
# B1: 1E7-huVH3-HC (IgG1) huVL2 (antibody)
# heavy: not shown
# light: DIQMTQSPSSLSASVGDRVTMTCKSSQSLLNSGNQKNYLTWYQQKPGKAPKLLIYWASTRESGVPSRFSGSGSGTDFTLTISSLQPEDFATYYCQNDYSYPFTFGGGTKLEIKRTVAAPSVFIFPPSDEQLKSGTASVVCLLNNFYPREAKVQWKVDNALQSGNSQESVTEQDSKDSTYSLSSTLTLSKADYEKHKVYACEVTHQGLSSPVTKSFNRGEC
# notes: humanized 1E7, human IgG1, kappa
# B2: 1E7-huVH3huVL2 (antibody, human IgG4 S228P, kappa)
# heavy: not shown
# light: B1 light
# notes: humanized 1E7, human IgG4, kappa
# B3: 1B6-huVH3huVL2 (antibody, human IgG4 S228P, kappa)
# heavy: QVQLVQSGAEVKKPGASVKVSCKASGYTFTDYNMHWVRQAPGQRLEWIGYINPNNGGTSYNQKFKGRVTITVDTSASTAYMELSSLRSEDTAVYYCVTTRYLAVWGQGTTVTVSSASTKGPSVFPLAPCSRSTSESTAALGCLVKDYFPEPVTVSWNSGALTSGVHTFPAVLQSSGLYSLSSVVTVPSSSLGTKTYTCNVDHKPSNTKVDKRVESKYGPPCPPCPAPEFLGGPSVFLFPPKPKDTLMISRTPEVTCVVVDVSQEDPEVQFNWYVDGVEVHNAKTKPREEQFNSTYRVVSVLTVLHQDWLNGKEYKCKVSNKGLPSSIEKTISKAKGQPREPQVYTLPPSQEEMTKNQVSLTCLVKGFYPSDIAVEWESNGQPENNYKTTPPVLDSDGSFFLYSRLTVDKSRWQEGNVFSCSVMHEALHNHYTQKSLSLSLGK
# light: B1 light with L30F, F102L
# notes: humanized 1B6, human IgG4, kappa
# B4: 1B6-huVH4huVL2 (antibody, human IgG4 S228P, kappa)
# heavy: not shown
# light: B1 light with L30F, F102L
# notes: as for B3
# B5: 1B6-huVH3huVL3 (antibody, human IgG4 S228P, kappa)
# heavy: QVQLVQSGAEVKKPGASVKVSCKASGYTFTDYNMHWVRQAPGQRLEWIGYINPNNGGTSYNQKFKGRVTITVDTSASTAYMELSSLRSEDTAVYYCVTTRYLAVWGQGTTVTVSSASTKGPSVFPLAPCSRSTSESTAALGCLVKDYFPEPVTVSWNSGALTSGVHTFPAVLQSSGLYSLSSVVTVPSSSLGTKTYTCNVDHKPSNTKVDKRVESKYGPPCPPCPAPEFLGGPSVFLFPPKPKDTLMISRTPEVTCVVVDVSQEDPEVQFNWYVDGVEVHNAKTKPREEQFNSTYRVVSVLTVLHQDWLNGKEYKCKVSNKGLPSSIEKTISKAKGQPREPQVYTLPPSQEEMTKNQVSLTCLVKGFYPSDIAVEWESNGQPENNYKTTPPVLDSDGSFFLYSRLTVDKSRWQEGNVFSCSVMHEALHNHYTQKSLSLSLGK
# light: B1 light with M21I, K24R, L30F, F102L
# notes: as for B3
# B6: 1E7-huVH3-HC (IgG1) huVL1 (antibody)
# heavy: not shown
# light: B1 light with Q3V, A13V, K48Q, A49P, S66D, L84V
# notes: as for B1
# B7: 1E7-huVH1-HC (IgG1) huVL1 (antibody)
# heavy: not shown
# light: B1 light with Q3V, A13V, K48Q, A49P, S66D, L84V
# notes: as for B1
# B8: 1B6-huVH5huVL3 (antibody, human IgG4 S228P, kappa)
# heavy: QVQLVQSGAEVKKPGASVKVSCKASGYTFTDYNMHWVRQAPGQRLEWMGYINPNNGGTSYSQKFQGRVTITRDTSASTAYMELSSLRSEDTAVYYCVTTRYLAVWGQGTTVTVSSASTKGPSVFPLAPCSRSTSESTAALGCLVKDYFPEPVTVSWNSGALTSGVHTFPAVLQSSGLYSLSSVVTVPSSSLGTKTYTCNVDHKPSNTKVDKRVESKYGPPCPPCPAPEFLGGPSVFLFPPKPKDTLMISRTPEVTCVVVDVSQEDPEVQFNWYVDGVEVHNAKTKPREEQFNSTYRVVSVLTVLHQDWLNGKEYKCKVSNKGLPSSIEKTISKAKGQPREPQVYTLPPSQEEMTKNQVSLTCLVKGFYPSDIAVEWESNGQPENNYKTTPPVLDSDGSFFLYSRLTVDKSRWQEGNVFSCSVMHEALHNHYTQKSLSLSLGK
# light: B1 light with M21I, K24R, L30F, F102L
# notes: as for B3
# B9: 1B6-huVH3huVL1 (antibody, human IgG4 S228P, kappa)
# heavy: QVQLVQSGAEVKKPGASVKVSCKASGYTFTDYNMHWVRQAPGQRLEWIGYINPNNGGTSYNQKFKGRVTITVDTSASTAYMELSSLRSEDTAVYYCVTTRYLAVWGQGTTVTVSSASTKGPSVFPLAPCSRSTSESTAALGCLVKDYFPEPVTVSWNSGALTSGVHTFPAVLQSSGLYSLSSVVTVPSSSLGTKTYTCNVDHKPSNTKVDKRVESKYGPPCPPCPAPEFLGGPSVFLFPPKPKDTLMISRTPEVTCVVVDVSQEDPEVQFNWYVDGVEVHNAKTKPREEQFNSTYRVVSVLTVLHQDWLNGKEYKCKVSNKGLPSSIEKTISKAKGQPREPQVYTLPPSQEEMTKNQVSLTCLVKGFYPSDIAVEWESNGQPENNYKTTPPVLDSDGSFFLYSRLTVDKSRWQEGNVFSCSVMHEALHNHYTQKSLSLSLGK
# light: B1 light with Q3V, A13V, L30F, S66D, L84V, Y93F, F102L
# notes: humanized 1B6, human IgG4, kappa; also called P04887
# B10: 1E7-huVH5-HC (IgG1) huVL3 (antibody)
# heavy: not shown
# light: B1 light with M21I, K24R
# notes: as for B1
# B11: 1E7-huVH5-HC (IgG1) huVL2 (antibody)
# heavy: not shown
# light: B1 light
# notes: as for B1
# B12: 1E7-huVH2huVL2 (antibody, human IgG4 S228P, kappa)
# heavy: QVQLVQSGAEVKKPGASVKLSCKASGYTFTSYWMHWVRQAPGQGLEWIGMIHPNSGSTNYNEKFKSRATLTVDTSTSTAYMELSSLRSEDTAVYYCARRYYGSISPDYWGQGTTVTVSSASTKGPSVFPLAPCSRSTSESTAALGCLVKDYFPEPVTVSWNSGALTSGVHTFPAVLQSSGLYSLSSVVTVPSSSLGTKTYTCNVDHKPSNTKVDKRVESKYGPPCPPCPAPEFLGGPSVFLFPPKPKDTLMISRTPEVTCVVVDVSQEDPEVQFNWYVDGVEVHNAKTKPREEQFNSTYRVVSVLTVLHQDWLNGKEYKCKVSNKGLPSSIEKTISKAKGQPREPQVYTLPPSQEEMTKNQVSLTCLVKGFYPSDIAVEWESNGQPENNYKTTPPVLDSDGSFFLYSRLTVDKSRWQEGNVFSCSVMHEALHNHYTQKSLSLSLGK
# light: B1 light
# notes: humanized 1E7, human IgG4, kappa; also called P04898
# B13: 1E7-huVH1huVL1 (antibody, human IgG4 S228P, kappa)
# heavy: not shown
# light: B1 light with Q3V, A13V, K48Q, A49P, S66D, L84V
# notes: as for B2
# B14: 1E7-huVH3huVL1 (antibody, human IgG4 S228P, kappa)
# heavy: not shown
# light: B1 light with Q3V, A13V, K48Q, A49P, S66D, L84V
# notes: as for B2
# B15: 1E7-huVH5huVL2 (antibody, human IgG4 S228P, kappa)
# heavy: not shown
# light: B1 light
# notes: as for B2
# B16: 1B6-huVH2huVL2 (antibody, human IgG4 S228P, kappa)
# heavy: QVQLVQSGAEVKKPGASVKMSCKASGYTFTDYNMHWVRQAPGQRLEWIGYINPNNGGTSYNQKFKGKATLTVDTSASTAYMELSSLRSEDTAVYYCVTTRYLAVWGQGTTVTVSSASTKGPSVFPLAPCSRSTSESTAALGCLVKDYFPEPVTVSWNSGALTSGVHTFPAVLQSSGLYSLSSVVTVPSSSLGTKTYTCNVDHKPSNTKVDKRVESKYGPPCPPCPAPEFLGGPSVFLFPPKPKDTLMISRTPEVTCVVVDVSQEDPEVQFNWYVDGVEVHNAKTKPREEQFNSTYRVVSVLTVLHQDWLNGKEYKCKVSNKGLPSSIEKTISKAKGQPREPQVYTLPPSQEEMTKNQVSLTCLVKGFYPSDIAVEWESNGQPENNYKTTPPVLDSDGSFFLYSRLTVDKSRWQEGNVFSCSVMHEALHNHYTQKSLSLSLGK
# light: B1 light with L30F, F102L
# notes: as for B3
# B17: 1E7-huVH4-HC (IgG1) huVL2 (antibody)
# heavy: not shown
# light: B1 light
# notes: as for B1
# B18: 1E7-huVH2-HC (IgG1) huVL2 (antibody)
# heavy: not shown
# light: B1 light
# notes: as for B1
# B19: 1B6-huVH5huVL2 (antibody, human IgG4 S228P, kappa)
# heavy: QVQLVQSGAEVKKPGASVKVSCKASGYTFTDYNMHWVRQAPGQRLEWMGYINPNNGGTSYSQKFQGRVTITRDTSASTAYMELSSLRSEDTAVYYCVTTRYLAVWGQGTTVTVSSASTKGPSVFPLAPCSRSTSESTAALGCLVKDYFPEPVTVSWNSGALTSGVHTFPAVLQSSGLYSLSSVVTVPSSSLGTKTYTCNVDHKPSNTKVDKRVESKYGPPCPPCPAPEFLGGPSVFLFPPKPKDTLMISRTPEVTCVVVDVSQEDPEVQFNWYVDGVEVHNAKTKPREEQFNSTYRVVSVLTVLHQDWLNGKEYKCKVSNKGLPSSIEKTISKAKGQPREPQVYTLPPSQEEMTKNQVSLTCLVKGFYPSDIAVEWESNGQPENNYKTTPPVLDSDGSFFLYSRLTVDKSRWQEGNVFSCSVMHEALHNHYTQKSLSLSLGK
# light: B1 light with L30F, F102L
# notes: as for B3
# B20: 1E7-huVH1-HC (IgG1) huVL2 (antibody)
# heavy: not shown
# light: B1 light
# notes: as for B1
# B21: 1B6-huVH2huVL1 (antibody, human IgG4 S228P, kappa)
# heavy: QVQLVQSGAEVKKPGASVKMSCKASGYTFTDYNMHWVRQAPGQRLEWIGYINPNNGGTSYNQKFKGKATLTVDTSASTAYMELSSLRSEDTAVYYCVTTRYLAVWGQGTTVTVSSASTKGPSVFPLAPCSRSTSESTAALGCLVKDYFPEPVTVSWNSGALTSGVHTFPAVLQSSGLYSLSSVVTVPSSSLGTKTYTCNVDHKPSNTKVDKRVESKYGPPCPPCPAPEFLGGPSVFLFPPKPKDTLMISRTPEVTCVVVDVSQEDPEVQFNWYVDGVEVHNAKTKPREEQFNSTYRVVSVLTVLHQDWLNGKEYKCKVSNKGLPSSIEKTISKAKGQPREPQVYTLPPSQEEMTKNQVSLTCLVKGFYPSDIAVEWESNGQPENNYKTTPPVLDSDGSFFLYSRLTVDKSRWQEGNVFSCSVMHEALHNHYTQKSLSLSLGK
# light: B1 light with Q3V, A13V, L30F, S66D, L84V, Y93F, F102L
# notes: as for B3
# B22: 1E7-huVH4-HC (IgG1) huVL3 (antibody)
# heavy: not shown
# light: B1 light with M21I, K24R
# notes: as for B1
# B23: 1B6-huVH1huVL2 (antibody, human IgG4 S228P, kappa)
# heavy: not shown
# light: B1 light with L30F, F102L
# notes: as for B3
# B24: 1E7-huVH4huVL3 (antibody, human IgG4 S228P, kappa)
# heavy: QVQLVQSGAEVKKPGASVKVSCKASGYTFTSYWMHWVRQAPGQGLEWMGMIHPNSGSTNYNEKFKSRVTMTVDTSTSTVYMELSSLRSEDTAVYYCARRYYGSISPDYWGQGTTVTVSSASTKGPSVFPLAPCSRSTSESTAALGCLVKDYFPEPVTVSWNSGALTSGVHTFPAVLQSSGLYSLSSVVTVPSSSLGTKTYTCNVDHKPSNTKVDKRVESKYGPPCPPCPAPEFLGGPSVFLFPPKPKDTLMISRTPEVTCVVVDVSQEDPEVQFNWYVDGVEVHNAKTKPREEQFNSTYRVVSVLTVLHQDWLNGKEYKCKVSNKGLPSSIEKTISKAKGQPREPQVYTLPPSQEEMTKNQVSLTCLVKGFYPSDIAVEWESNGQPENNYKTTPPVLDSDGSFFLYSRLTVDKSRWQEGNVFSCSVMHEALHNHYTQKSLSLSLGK
# light: B1 light with M21I, K24R
# notes: as for B2
# B25: 1E7-huVH3-HC (IgG1) huVL3 (antibody)
# heavy: not shown
# light: B1 light with M21I, K24R
# notes: as for B1
# B26: 1E7-huVH3huVL3 (antibody, human IgG4 S228P, kappa)
# heavy: not shown
# light: B1 light with M21I, K24R
# notes: as for B2
# B27: 1E7-huVH5huVL3 (antibody, human IgG4 S228P, kappa)
# heavy: not shown
# light: B1 light with M21I, K24R
# notes: as for B2
# B28: 1E7-huVH2-HC (IgG1) huVL1 (antibody)
# heavy: not shown
# light: B1 light with Q3V, A13V, K48Q, A49P, S66D, L84V
# notes: as for B1
# B29: 1E7-huVH4huVL2 (antibody, human IgG4 S228P, kappa)
# heavy: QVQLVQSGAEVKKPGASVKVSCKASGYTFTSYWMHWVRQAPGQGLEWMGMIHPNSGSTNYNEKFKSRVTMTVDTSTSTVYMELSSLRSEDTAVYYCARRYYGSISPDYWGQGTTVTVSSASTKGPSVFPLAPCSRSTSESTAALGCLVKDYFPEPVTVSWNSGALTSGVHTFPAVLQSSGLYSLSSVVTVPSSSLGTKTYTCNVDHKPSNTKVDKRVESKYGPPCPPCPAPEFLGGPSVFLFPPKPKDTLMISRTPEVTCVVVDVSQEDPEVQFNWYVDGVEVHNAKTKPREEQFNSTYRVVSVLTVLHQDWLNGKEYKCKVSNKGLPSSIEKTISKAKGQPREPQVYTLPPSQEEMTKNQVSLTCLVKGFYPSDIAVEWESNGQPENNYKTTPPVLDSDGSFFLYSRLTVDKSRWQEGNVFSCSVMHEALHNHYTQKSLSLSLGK
# light: B1 light
# notes: humanized 1E7, human IgG4, kappa; also called P04902
# B30: 1E7-huVH2huVL1 (antibody, human IgG4 S228P, kappa)
# heavy: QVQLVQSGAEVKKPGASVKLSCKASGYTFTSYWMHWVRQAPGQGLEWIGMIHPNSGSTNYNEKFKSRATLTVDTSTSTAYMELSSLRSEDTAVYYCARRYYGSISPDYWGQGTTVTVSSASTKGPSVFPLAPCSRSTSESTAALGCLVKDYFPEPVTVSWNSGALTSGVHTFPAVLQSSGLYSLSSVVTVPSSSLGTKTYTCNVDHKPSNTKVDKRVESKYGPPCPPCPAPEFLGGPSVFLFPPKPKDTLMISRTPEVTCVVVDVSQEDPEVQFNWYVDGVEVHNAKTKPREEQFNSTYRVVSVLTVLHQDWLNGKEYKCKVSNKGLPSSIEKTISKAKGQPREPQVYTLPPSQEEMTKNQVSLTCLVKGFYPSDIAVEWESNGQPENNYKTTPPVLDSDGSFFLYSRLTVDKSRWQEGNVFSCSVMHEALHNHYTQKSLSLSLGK
# light: B1 light with Q3V, A13V, K48Q, A49P, S66D, L84V
# notes: as for B2
# B31: 1E7-huVH1huVL2 (antibody, human IgG4 S228P, kappa)
# heavy: not shown
# light: B1 light
# notes: as for B2
# B32: 1B6-huVH4huVL3 (antibody, human IgG4 S228P, kappa)
# heavy: not shown
# light: B1 light with M21I, K24R, L30F, F102L
# notes: humanized 1B6, human IgG4, kappa; also called P04891
# B33: 1E7-mVHmVL (antibody, human IgG4 S228P, kappa)
# heavy: not shown
# light: DIVMTQSPSSLSVTAGEKVTMSCKSSQSLLNSGNQKNYLTWYQQKPGQPPKLLIYWASTRESGVPDRFTGSGSGTDFTLTISSVQAEDLAVYYCQNDYSYPFTFGSGTKLEIKRTVAAPSVFIFPPSDEQLKSGTASVVCLLNNFYPREAKVQWKVDNALQSGNSQESVTEQDSKDSTYSLSSTLTLSKADYEKHKVYACEVTHQGLSSPVTKSFNRGEC
# notes: also called chimeric antibody 1E7; chimeric antibody murine 1E7 monoclonal antibody
# B34: 1B6-mVHmVL (antibody, human IgG4 S228P, kappa)
# heavy: not shown
# light: B33 light with S12T, L30F, Y93F, F102L, S106A, I112L
# notes: also called chimeric antibody 1B6; chimeric antibody murine 1B6 monoclonal antibody
# B35: 1E7-mVH-HC (IgG1) mVL (antibody)
# heavy: not shown
# light: B33 light
# notes: also called chimeric antibody 1E7-mVH-HC (IgG1) mVL
# B36: 1B6-mVH-HC (IgG1) mVL (antibody)
# heavy: not shown
# light: B33 light with S12T, L30F, Y93F, F102L, S106A, I112L
# notes: also called chimeric antibody 1B6-mVH-HC (IgG1) mVL
# Biological target: T1, claudin-18.2 antigen (manufacturer: …)
# Assay: ELISA, plate coated with claudin-18.2 antigen
# Method: The ELISA plates were washed three times with PBST and blocked with 5% PBS-milk for 2 h at room temperature. The ELISA plate was washed three times with PBST, and the diluted antibodies were added to the ELISA plate, 30 μL per well, and incubated at room temperature for 60 min. The plates were washed three times with PBST and incubated with anti-human IgG-Fc-HRP (abcam, ab97225) for 50 min at room temperature. The plate was washed 12 times with PBST, and TMB was added, 30 μL per well. The reaction was terminated with stop solution and OD450 was read. The ELISA affinity EC50 was calculated.
row,EC50,Binder
1,0.0576 µg/mL,B1
2,0.56 µg/mL,B2
3,0.245 µg/mL,B3
4,0.21 µg/mL,B4
5,0.209 µg/mL,B5
6,0.0663 µg/mL,B6
7,0.0479 µg/mL,B7
8,0.174 µg/mL,B8
9,0.0569 µg/mL,B9
10,0.13 µg/mL,B10
11,0.141 µg/mL,B11
12,0.262 µg/mL,B12
13,0.309 µg/mL,B13
14,0.606 µg/mL,B14
15,0.496 µg/mL,B15
16,0.192 µg/mL,B16

row,EC50,Binder
1,0.0397 µg/mL,B17
2,0.0555 µg/mL,B18
3,0.202 µg/mL,B19
4,0.0305 µg/mL,B20
5,0.0978 µg/mL,B21
6,0.05 µg/mL,B22
7,0.0775 µg/mL,B23
8,0.441 µg/mL,B24
9,0.0707 µg/mL,B25
10,0.509 µg/mL,B26
11,0.0931 µg/mL,B27
12,0.111 µg/mL,B28
13,0.309 µg/mL,B29
14,0.436 µg/mL,B30
15,0.156 µg/mL,B31
16,0.346 µg/mL,B32

# Biological target: T1, claudin-18.2 antigen (manufacturer: …)
# Assay: Gator label-free kinetics, antibody loaded, antigen 2000-500 nM
# Method: The GATOR instrument and associated software were opened and the Kinetics experimental mode was selected. After data collection, Kinetics fitting was performed to calculate the affinity kinetic parameters. The correlation coefficient R² of all antibodies in the Global fitting mode was greater than 0.95, which met the system suitability requirements and the results were reliable.
Kd,koff,kon,Binder
2.66 nM,2.71e-05 s⁻¹,10200 M⁻¹ s⁻¹,B33
84.2 nM,0.00188 s⁻¹,22300 M⁻¹ s⁻¹,B34
3.82 nM,4.48e-05 s⁻¹,11700 M⁻¹ s⁻¹,B35
44.4 nM,0.000792 s⁻¹,17800 M⁻¹ s⁻¹,B36
0.289 nM,2.94e-06 s⁻¹,10200 M⁻¹ s⁻¹,B1
2.02 nM,2.08e-05 s⁻¹,10300 M⁻¹ s⁻¹,B2
12.7 nM,0.000121 s⁻¹,9480 M⁻¹ s⁻¹,B3
7.06 nM,7.06e-05 s⁻¹,9990 M⁻¹ s⁻¹,B4
8.11 nM,8.56e-05 s⁻¹,10600 M⁻¹ s⁻¹,B5
0.35 nM,3.6e-06 s⁻¹,10300 M⁻¹ s⁻¹,B6
4.9 nM,5.97e-05 s⁻¹,12200 M⁻¹ s⁻¹,B7
7.51 nM,9.78e-05 s⁻¹,13000 M⁻¹ s⁻¹,B8
0.98 nM,1.27e-05 s⁻¹,13000 M⁻¹ s⁻¹,B9
0.929 nM,9.83e-06 s⁻¹,10600 M⁻¹ s⁻¹,B10
13.1 nM,0.000167 s⁻¹,12800 M⁻¹ s⁻¹,B11
21.6 nM,0.000269 s⁻¹,12400 M⁻¹ s⁻¹,B12
3.58 nM,3.81e-05 s⁻¹,10600 M⁻¹ s⁻¹,B13
12 nM,0.000132 s⁻¹,11000 M⁻¹ s⁻¹,B14

Kd,koff,kon,Binder
5.24 nM,5.29e-05 s⁻¹,10100 M⁻¹ s⁻¹,B15
4.86 nM,6.78e-05 s⁻¹,13900 M⁻¹ s⁻¹,B16
10.7 nM,0.000126 s⁻¹,11800 M⁻¹ s⁻¹,B17
2.89 nM,3.18e-05 s⁻¹,11000 M⁻¹ s⁻¹,B18
10.6 nM,0.000144 s⁻¹,13600 M⁻¹ s⁻¹,B19
4.85 nM,5.87e-05 s⁻¹,12100 M⁻¹ s⁻¹,B20
4.57 nM,6.36e-05 s⁻¹,13900 M⁻¹ s⁻¹,B21
2.64 nM,2.99e-05 s⁻¹,11300 M⁻¹ s⁻¹,B22
10.6 nM,0.000164 s⁻¹,15500 M⁻¹ s⁻¹,B23
6.19 nM,6.27e-05 s⁻¹,10100 M⁻¹ s⁻¹,B24
11.6 nM,0.000132 s⁻¹,11300 M⁻¹ s⁻¹,B25
13.5 nM,0.000149 s⁻¹,11000 M⁻¹ s⁻¹,B26
3.21 nM,3.09e-05 s⁻¹,9610 M⁻¹ s⁻¹,B27
1.82 nM,1.97e-05 s⁻¹,10900 M⁻¹ s⁻¹,B28
4.6 nM,4.86e-05 s⁻¹,10600 M⁻¹ s⁻¹,B29
0.277 nM,2.65e-06 s⁻¹,9550 M⁻¹ s⁻¹,B30
5.08 nM,5.56e-05 s⁻¹,10900 M⁻¹ s⁻¹,B31
7.24 nM,8.07e-05 s⁻¹,11100 M⁻¹ s⁻¹,B32
